From the nanobody polyreactivity screen of Harvey et al. (2022)

Assay: yeast display, Sf9 membrane polyspecificity reagent, FACS + sequencing; frameworks hold sequencing errors
Outline: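 A synthetic nanobody library was expressed on Saccharomyces cerevisiae BJ5465 by galactose induction for 36–48 hours. The library was stained for 1 hour at 4 °C with 10% biotinylated, detergent-solubilized Sf9 membrane reagent and enriched with streptavidin microbeads before FACS. Low and high (top ~1%) gates were set on anti-HA fluorescence for expression and streptavidin fluorescence for reagent binding, and each polyreactivity label reflects the gate of origin.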

QVQLVESGGGLVQAGGSLRLSCAASGFIFSVYAMGWYRQAPGKERELVAAITGNGVSTYYADSVKGRFTISRDNAKNTVYLQMISLKPEDTAVYSCATYGRRWYSSRRLDYWGQGTQVTVSS
polyreactivity (PSR sort gate): low polyreactivity

QVQLVESGGGLVQAGGSLRLSCAASGFIFSYNVMGWYRQAPGKERELVAAISSGGGRTYYADSVKGRFTISRDNAKNTVYLQMNSLKPEDTAVYYCNAYRLSRVQLYYWGQGTQVTVSS
polyreactivity (PSR sort gate): high polyreactivity

QVQLVESGGGLVQAGGSLRLSCAASGFIFSYYAMGGYRQAPGKERELVAAITSGGSTNYADSVKGRLTISRDNAKNTFYLQMNSLKPEDTAVYYCAAERGDTAYLKYDYCGQGTQVTVSS
polyreactivity (PSR sort gate): low polyreactivity

QVQLVESGGGLVQAGGSLRLSCAASGFIFSYYAMGWYRQAPGKERELVAAISISGGSTYYADSVKGRFTISRDNAKTTVYLQMNSLKPEDTAVYYCNKAPRYPYGGYDYWGQGTQVTVSS
polyreactivity (PSR sort gate): low polyreactivity

QVQLVESGGGLVQAGGSLRLSCAASGFIFSYYAMGWYRQAPGKERELVAAISKTGGNTFYADSVKGRFTISRDNAKNTVYLQMNSLKPEDTGVYYCNALRGDWRDMGYWGQGTQVTVSS
polyreactivity (PSR sort gate): high polyreactivity

QVQLVESGGGLVQAGGSLRLSCAASGFIFSYYAMGWYRQAPGKERELVAAISRSGGSTYYADSVKGRFTISRDNAKNTVYLQMNSLKPEDTAVYYCAARYWRRYGQGYRYDYWGQGTQVTVSS
polyreactivity (PSR sort gate): high polyreactivity

QVQLVESGGGLVQAGGSLRLSCAASGFIFSYYAMGWYRQAPGKERELVAAITWDGGSTYYADSVKGRFTISRDYANNTVYLLLNSLKPEDTAVYYCNAYYYYRRPLEGGYWGQGNQVTVSS
polyreactivity (PSR sort gate): low polyreactivity

QVQLVESGGGLVQAGGSLRLSCAASGFIFSYYAMGWYRQAPGKERELVAGITRSGGSTYYADSVKGRFTISRDNAKNTVYLQMNSLKPEDTAVYYCAAGYFYHFSRYTNRYGYWGQGTQVTVSS
polyreactivity (PSR sort gate): high polyreactivity

QVQLVESGGGLVQAGGSLRLSCAASGFIFSYYAMGWYRQAPGKEREWVAAISKTGGNTYYADSVKGRFTISRDNAKKTVYLQMNSLKPEDTAVYYCNALRGDWRDMGYCGQGTQVTVSS
polyreactivity (PSR sort gate): high polyreactivity

QVQLVESGGGLVQAGGSLRLSCAASGFIFSYYAMVWYRQAPGTERELVAAISSSGSRTYYADSVKGRFTISRDNAKNTVYLQMNSLKPEDTAVYYCAARGAAKYGYWGQGTQVTVSS
polyreactivity (PSR sort gate): high polyreactivity

QVQLVESGGGLVQAGGSLRLSCAASGFIFTDNAMGRYRHAPRTERELVAAINLSGTRTYYADSVKGRFTISRDNAKNTVYLQMNSLKPEDTAVYYCNKSEDYTYDYWGQGTQVTVSS
polyreactivity (PSR sort gate): low polyreactivity

QVQLVESGGGLVQAGGSLRLSCAASGFIFTDYAMGWYRQAPGKEREFVAAIDWSGGNTYYADSVKGRFTISRDHAKNTVYLQMNRLKPEDTAVYYCNAGDYFVRFVYYWDDERYDYWGQGTQVTVSS
polyreactivity (PSR sort gate): low polyreactivity

QVQLVESGGGLVQAGGSLRLSCAASGFIFTFYAMGWYRQAPGKEREFVASIDWGDGSTYYADSVKGRFTISRDNAKNTVYLQMNSLKPEDTAVYYCATDVYFLSSEYWGQGTQVTVSS
polyreactivity (PSR sort gate): low polyreactivity

QVQLVESGGGLVQAGGSLRLSCAASGFIFTGNAMGWYRQAPGKERELVAAISKRGGRTYYADSVKGRFTISRDNAKNTVYLQMNSLKPEDTAVYYCAAVGYAYTYAEYYYWGQGTQVTVSS
polyreactivity (PSR sort gate): high polyreactivity

QVQLVESGGGLVQAGGSLRLSCAASGFIFTGNAMGWYRQAPGKERELVAAITGRGSTYYADSVKGRFTISRDNGKNSVYLQMNSLKPEDTAVYYCAAKRWWQYYWGQGTQVTVSS
polyreactivity (PSR sort gate): high polyreactivity

QVQLVESGGGLVQAGGSLRLSCAASGFIFTGYTMGWYRQAPGKERELVARISSGDSTKYADSVKGRFTISRDNAKNNVYLQMNSLKPEDTAVYYCAAYIRNARNGTTYDYWGQGTQVTVSS
polyreactivity (PSR sort gate): high polyreactivity

QVQLVESGGGLVQAGGSLRLSCAASGFIFTHYAMGWYRQAPGKERELVAAISRRGGSTYYADSVKGRFTISRDNAKNTVYLQMNSLKPEDTAVYYCAADNYDAWYWDYYWGQGTQVTVSS
polyreactivity (PSR sort gate): high polyreactivity
